B1: BRD3^BD2 (second bromodomain of BRD3, residues 306-416) (domain or fragment)
chain: GKLSEHLRYCDSILREMLSKKHAAYAWPFYKPVDAEALELHDYHDIIKHPMDLSTVKRKMDGREYPDAQGFAADVRLMFSNCYKYNPPDHEVVAMARKLQDVFEMRFAKMP

Assay [1] concerns the target KLHDC2 K291 to alanine mutant (UniProt Q9Y2U9 15-361, K291 to alanine). Description: ITC; ternary, with SJ46421.
Assay [2] deals with T1, KLHDC2 R56A mutant (UniProt Q9Y2U9 15-361, R56A). Description: ITC; ternary, with SJ46421.
For assay [3], the target named is KLHDC2 R112 to alanine mutant (UniProt Q9Y2U9 15-361, R112 to alanine). The assay can be described thus: ITC; ternary, with SJ46421.
Assay [4] has as its target KLHDC2 H346/R347 to alanine mutant (UniProt Q9Y2U9 15-361, H346 to alanine | R347 to alanine, H346A and R347A taken as one combined double mutant, because the text lists H346/R347 as one of four patches mutated to alanine; whether they were combined is not printed explicitly). Description: ITC; ternary, with SJ46421.
For assay [5], the target named is T1, KLHDC2 R56A mutant. Description: ITC; ternary complex with PROTAC SJ46421.
Assay [6] deals with T2, BRD2^BD2 G-to-E swap mutant (G382E) (UniProt P25440 344-455, G-to-E swap mutation (G382)). Description: ITC; ternary, with SJ46421.
The target of assay [7] is T3, BRD3^BD2 E344G swap mutant (UniProt Q15059 306-416, E344G). The assay can be described thus: ITC; ternary, with SJ46421.
The target of assay [8] is T4, BRD4^BD2 G-to-E swap mutant (G386E) (UniProt O60885 334-460, G-to-E swap mutation (G386)). Description: ITC; ternary, with SJ46421.
The target of assay [9] is B1. Description: ITC; ternary, BRD3 BD2 pre-bound to SJ46423.
Assay [10] concerns the target T2, BRD2^BD2 G-to-E swap mutant (G382E). The assay can be described thus: ITC; ternary complex with PROTAC SJ46421.
Assay [11] concerns the target T3, BRD3^BD2 E344G swap mutant. Description: ITC; ternary complex with PROTAC SJ46421.
Assay [12] deals with T4, BRD4^BD2 G-to-E swap mutant (G386E). Description: ITC; ternary complex with PROTAC SJ46421.
In assay [13] the target is T5, BRD2^BD2 (second bromodomain of BRD2, residues 344-455) (UniProt P25440 344-455). Description: ITC; ternary, BRD2 BD2 pre-bound to PROTAC SJ46421.
Assay [14] deals with T6, BRD4^BD2 (second bromodomain of BRD4, residues 334-460) (UniProt O60885 334-460). The assay can be described thus: ITC; ternary, BRD4 BD2 pre-bound to PROTAC SJ46421.
Assay [15] deals with T6, BRD4^BD2 (second bromodomain of BRD4, …). Description: ITC; ternary complex with PROTAC SJ46421 (BRD4BD2-SJ46421 in cell).
The target in assay [16] is T5, BRD2^BD2 (second bromodomain of BRD2, …). Description: ITC; ternary complex with PROTAC SJ46421 (BRD2BD2-SJ46421 in cell).
Assay [17] deals with B1. The assay can be described thus: ITC; ternary, BRD3 BD2 pre-bound to PROTAC SJ46421.
The target in assay [18] is B1. The assay can be described thus: ITC; ternary complex with PROTAC SJ46421 (BRD3BD2-SJ46421 in cell).
The target of assay [19] is B1. Description: ITC; ternary complex with PROTAC SJ46423 (BRD3BD2-SJ46423 in cell).

These results are taken from paper PMC11470957 (2024).

For the molecule B1, the Kd in assay [1] amounted to 25.6 nM; in assay [2], 273 nM; in [3], 39.7 nM; in assay [4], 50.9 nM; in [5], 273 nM.

B2: KLHDC2 substrate binding domain (KLHDC2^SBD, 15-361) (domain or fragment)
chain: GPAFESYESMELACPAERSGHVAVSDGRHMFVWGGYKSNQVRGLYDFYLPREELWIYNMETGRWKKINTEGDVPPSMSGSCAVCVDRVLYLFGGHHSRGNTNKFYMLDSRSTDRVLQWERIDCQGIPPSSKDKLGVWVYKNKLIFFGGYGYLPEDKVLGTFEFDETSFWNSSHPRGWNDHVHILDTETFTWSQPITTGKAPSPRAAHACATVGNRGFVFGGRYRDARMNDLHYLNLDTWEWNELIPQGICPVGRSWHSLTPVSSDHLFLFGGFTTDKQPLSDAWTYCISKNEWIQFNHPYTEKPRLWHTACASDEGEVIVFGGCANNLLVHHRAAHSNEILIFSVQP
As for B2, the Kd was 95.4 nM in assay [6]; 181 nM in [7]; 24.5 nM in assay [8]; 251 nM in [9]; 95.4 nM in assay [10]; 181 nM in assay [11]. Moreover, the Kd in assay [12] is 24.5 nM; in assay [13] it was 208 nM; in assay [14], 109 nM; in [15], 109 nM; in [16], 208 nM; in [17], 19 nM. Besides, the dissociation constant Kd was found to be 19 nM in assay [18] and 251 nM in [19].
